Results from patent publication US20240391996A1 (TAISHO PHARMACEUTICAL, published 2024).
Like-named read-outs stand apart in the source and are kept apart here. Each block holds one binder with its values, some of them ahead of it.

Key:
[1] = biological target: recombinant cynomolgus monkey GH (cynomolgus monkey); experiment: cell-based or functional assay
[2] = biological target: T1, placental lactogen (PL) (Protein Laboratories Rehovot Ltd.) (human, UniProt P0DML2 27-217); experiment: competitive ELISA on immobilised human GH; IC50 (human GH)/IC50 (PL) x 100
T1 construct: also called human placental lactogen; GH-analogous protein
Experimental: (§1) IC₅₀ (nmol/L) for each of the anti-GH antibodies was determined by concentration-dependent curves of human GH and GH-analogous protein. The cross-reactivity to the GH-analogous protein was calculated by the following formula 3.

[3] = biological target: T2, prolactin (PRL) (BBT Boster Immunoleader) (human, UniProt P01236 29-227); experiment: competitive ELISA on immobilised human GH; IC50 (human GH)/IC50 (PRL) x 100
T2 construct: also called human prolactin; GH-analogous protein
T2 sequence (looked up): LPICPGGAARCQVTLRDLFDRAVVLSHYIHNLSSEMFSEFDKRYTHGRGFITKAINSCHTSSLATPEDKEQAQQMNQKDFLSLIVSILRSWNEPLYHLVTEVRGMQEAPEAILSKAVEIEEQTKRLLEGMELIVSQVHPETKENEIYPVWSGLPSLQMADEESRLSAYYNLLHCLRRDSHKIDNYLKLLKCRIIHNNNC
Experimental: as §1

[4] = biological target: recombinant cynomolgus monkey GH (cynomolgus monkey); experiment: SPR (BIACORE 8K+), antibody captured by anti-human IgG (Fc) on CM5 chip, GH as analyte
Experimental: (§2) The binding properties of the recombinant anti-GH humanized antibody (Hu-13H02) and the Fc mutant thereof (Hu-13H02m) prepared in Example 11, and the chimeric antibody (Ch-13H02) prepared in Example 8 to the human GH (Pharmaceutical and Medical Device Regulatory Science Society of Japan) and the monkey GH (Example 3) were measured with SPR using BIACORE 8K+ (GE Healthcare Inc.). The antibody samples (1 μg/mL) of the three antibodies (Hu-13H02, Hu-13H02m, and Ch-13H02) were captured by anti-human IgG (Fc) antibody immobilized on a CM5 sensor chip, respectively. Next, the human GH ranging from 0.13 to 8.0 nmol/L, or the monkey GH ranging from 0.50 to 32 nmol/L was added to calculate binding and dissociation parameters.

[5] = biological target: T3, recombinant human GH (Pharmaceutical and Medical Device Regulatory Science Society of Japan) (human, UniProt P01241 27-217); experiment: cell-based or functional assay
[6] = biological target: T3, recombinant human GH (Pharmaceutical …); experiment: GH-GHR binding inhibition ELISA: biotin-labeled GH (5.5 ng/mL) on captured GHR-hFc, antibody varied
Experimental: The GH-GHR binding inhibitory activity was measured by calculating the inhibition rate of binding signal of biotin-labeled GH to GHR extracellular region protein-human Fc fusion (GHR-hFc) which was immobilized on an ELISA plate via anti-human Fcγ mouse antibody. The biotin-labeled GH was prepared by labeling recombinant GH with EZ-Link Micro NHS-PEG4-Biotinylation kit (Thermo Fisher Scientific Inc.). The specific method is as follows. Anti-human Fcγ mouse antibody (Jackson ImmunoResearch Laboratories, Inc.) diluted to 1 μg/mL PBS was immobilized at 50 μL/well on a 96-well half-area immunoplate, and the plate was blocked with PBS comprising 1% BSA. Next, GHR-hFc (R&D Systems, Inc.) diluted with assay buffer (PBS comprising 0.2% BSA and 0.05% Tween 20) to 0.1 μg/mL was added at 50 μL/well to be captured on the plate. The plate was washed with washing buffer (PBS comprising 0.05% Tween 20), followed by mixing the equivalent amount of biotin-labeled GH diluted with assay buffer to final concentration of 5.5 ng/mL and a sample (anti-GH mouse mAb-comprising sample) diluted with assay buffer, and adding the resultant mixture at 50 μL/well, and the plate was left still at room temperature for 2 hours. […] The reaction was stopped by adding an aqueous solution of 0.5 mol/L H₂SO₄, and then the absorbance at 450 nm was measured with a plate reader.

[7] = biological target: T3, recombinant human GH (Pharmaceutical …); experiment: cell-based or functional assay; remark: listed apart in the source
[8] = biological target: T3, recombinant human GH (Pharmaceutical …); experiment: cell-based or functional assay; remark: listed apart in the source
[9] = biological target: T3, recombinant human GH (Pharmaceutical …); experiment: SPR (BIACORE 8K+), antibody captured by anti-human IgG (Fc) on CM5 chip, GH as analyte
Experimental: as §2

Chain of recombinant cynomolgus monkey GH (cynomolgus monkey) (P33093 27-217): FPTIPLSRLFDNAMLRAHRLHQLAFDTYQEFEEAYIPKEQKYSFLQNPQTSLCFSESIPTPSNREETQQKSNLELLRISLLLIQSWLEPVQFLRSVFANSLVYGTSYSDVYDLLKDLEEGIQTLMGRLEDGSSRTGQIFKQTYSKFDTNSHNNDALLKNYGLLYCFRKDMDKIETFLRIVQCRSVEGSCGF
T1 sequence (P0DML2 27-217 limits assumed): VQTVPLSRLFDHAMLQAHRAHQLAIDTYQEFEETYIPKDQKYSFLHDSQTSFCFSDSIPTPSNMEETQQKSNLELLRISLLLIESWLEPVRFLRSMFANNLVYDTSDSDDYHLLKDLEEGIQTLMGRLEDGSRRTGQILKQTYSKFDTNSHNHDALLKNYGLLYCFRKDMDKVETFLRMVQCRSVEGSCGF
T3 sequence (P01241 27-217 limits assumed): as the sequence (P33093 27-217) above, with T105A, Y107D, D109N, S133P, N153D, I173V counted along it

B2: anti-GH humanized antibody Fc mutant (Hu-13H02m) (antibody, human IgG1, kappa, V domains shown)
VH: QVQMVQSGAEVKKPGASVKVSCKASGFTFTSSEISWLRQAPGQRLEWIAWIYPGTGSSKFNQKFTGKATLTADTSASTAYMELSSLRSEDTAVYYCARRGFFGGSFDYWGQGTTVTVSS
VL: DIQLTQSPSFLSASVGDRVTITCTATSSVSSSYLHWYQQKPGKAPKLWIYSTSNLASGVPSRFSGSGSGTEFTLTISSLQPEDFATYYCHQYHHSPPTFGGGTKVEIKR
notes: also called Fc variant of Hu-13H02
- Neutralizing activity in GH-dependent Nb2 cell proliferation inhibition assay (IC50) [1]: 0.0301 nM
- cross-reactivity [2]: < 1%
- cross-reactivity [3]: < 1%
- Kd [4]: 0.13 nM
- koff [4]: 6.9e-05 s⁻¹
- kon [4]: 520000 M⁻¹ s⁻¹

B4: recombinant anti-GH mouse-human chimeric mAb (Ch-13H02) (antibody, human IgG1, V domains shown)
VH: QGQMQQSGGELVNPGSSVKMSCKTSGFTFTSSEISWLKQKPGQSLEWIAWIYPGTGSSKFNQKFTGKAQLTAETSSSTAYMQLSSLTSEDSAIYYCARRGFFGGSFDYWGQGTTLTISS
VL: QIVLAQSPAIMSASLGERVTMTCTATSSVSSSYLHWYQQKPGSSPKLWIYSTSNLASGVPARFSGSGSGTSYSLTISSMEAEDAATYYCHQYHHSPPTFGAGTKLELK
notes: also called Ch-13H2; anti-GH chimeric antibody
- GH-dependent Nb2 cell proliferation inhibitory activity (IC50) [7]: 0.00627 nM
- Neutralizing activity in GH-dependent Nb2 cell proliferation inhibition assay (IC50) [8]: 0.00265 nM
- Neutralizing activity in GH-dependent Nb2 cell proliferation inhibition assay (IC50) [1]: 0.0136 nM
- cross-reactivity [2]: < 1%
- cross-reactivity [3]: < 1%
- Kd [9]: 0.012 nM
- koff [9]: 2.4e-05 s⁻¹
- kon [9]: 1.9e+06 M⁻¹ s⁻¹
- Kd [4]: 0.074 nM
- koff [4]: 3.4e-05 s⁻¹
- kon [4]: 450000 M⁻¹ s⁻¹

Other lines, results leading:

- Neutralizing activity in GH-dependent Nb2 cell proliferation inhibition assay (IC50) [1]: 0.048 nM
- cross-reactivity [2]: < 1%
- cross-reactivity [3]: < 1%
- Kd [4]: 0.13 nM
- koff [4]: 6.2e-05 s⁻¹
- kon [4]: 470000 M⁻¹ s⁻¹
B1: recombinant anti-GH humanized antibody (Hu-13H02) (antibody, human IgG1, V domains shown)
VH: B2 VH
VL: DIQLTQSPSFLSASVGDRVTITCTATSSVSSSYLHWYQQKPGKAPKLWIYSTSNLASGVPSRFSGSGSGTEFTLTISSLQPEDFATYYCHQYHHSPPTFGGGTKVEIK
notes: also called humanized 13H02

- GH-dependent Nb2 cell proliferation inhibitory activity (IC50) [5]: 0.00336 nM
- IC50 [6]: 0.0653 nM
B3: anti-GH mouse mAb 13H02 (antibody, mouse IgG2a, V domains shown)
VH: B4 VH
VL: B4 VL
notes: also called parent mouse antibody (13H02)
